Like-named read-outs stand apart in the source and are kept apart here. *1 amine or outer side, *2 acyl side, *3 side chain or, on linkers, in order; H or OH if unused. Bridges are numbered along the chain shown (N, C = ends). Primed or numbered codes have the meaning given here. Where no end group is shown, it is not given here. [ ]: non-standard residue; d: D form. The star is where a group is joined. K(G) = Lys(Gly): lysine with a glycine on the side-chain amine, (2S)-2-amino-6-[(2-aminoacetyl)amino]hexanoic acid, O=C(CN[*:3])NCCCC[C@H](N[*:1])C(=O)[*:2]; 4‑Aminomethyl‑phenylacetyl = 4-aminomethyl-phenylacetyl unit, its amine closes the lactam, O=C(Cc1ccc(CN[*:1])cc1)[*:2]; 1,3‑dibromopropan‑2‑one″ = linker forming 1,3-dithio-propan-2-one bridge -SCH2C(=O)CH2S- between two Cys; NH(2-(3-pyridyl)ethyl) = c1cncc(CCN*)c1; Phe(4-Me) = Cc1ccc(C[C@H](N)C(=O)O)cc1; 2Nal = N[C@@H](Cc1ccc2ccccc2c1)C(=O)O; AEF = NCCOc1ccc(C[C@H](N)C(=O)O)cc1; 3Pal = N[C@@H](Cc1cccnc1)C(=O)O; β3hE = N[C@@H](CCC(=O)O)CC(=O)O; αMeL = CC(C)C[C@](C)(N)C(=O)O; Dab = NCC[C@H](N)C(=O)O; Aib = CC(C)(N)C(=O)O; βAla = NCCC(=O)O
T1: Nluc-IL23R fusion protein (human, UniProt Q5VWK5 22-629)
T1 construct: range 22-629; Stably expressed in HEK293 cells; also called hIL-23R; human IL-23R; not shown: Nanoluc protein (N1371, Promega) at the N-terminus, after a secretion signal
T1 sequence (looked up): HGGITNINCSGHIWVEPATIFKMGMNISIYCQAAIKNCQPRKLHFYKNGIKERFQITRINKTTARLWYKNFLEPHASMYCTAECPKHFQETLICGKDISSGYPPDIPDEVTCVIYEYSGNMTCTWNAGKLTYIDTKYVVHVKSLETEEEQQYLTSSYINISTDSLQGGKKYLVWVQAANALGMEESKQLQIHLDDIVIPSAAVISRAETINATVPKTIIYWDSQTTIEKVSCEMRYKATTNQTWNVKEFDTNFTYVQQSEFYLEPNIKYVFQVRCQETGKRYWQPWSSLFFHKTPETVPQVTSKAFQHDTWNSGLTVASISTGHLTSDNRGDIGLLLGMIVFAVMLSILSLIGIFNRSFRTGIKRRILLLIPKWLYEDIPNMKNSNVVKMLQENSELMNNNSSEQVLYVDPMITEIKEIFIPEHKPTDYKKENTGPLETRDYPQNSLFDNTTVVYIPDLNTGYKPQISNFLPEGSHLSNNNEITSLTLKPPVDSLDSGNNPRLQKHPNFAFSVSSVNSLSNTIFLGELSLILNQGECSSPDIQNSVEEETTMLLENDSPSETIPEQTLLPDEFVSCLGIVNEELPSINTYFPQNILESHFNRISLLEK

T2: human IL-23R endogenously expressed on DB cells (human, UniProt Q5VWK5 24-629)
T2 sequence (looked up): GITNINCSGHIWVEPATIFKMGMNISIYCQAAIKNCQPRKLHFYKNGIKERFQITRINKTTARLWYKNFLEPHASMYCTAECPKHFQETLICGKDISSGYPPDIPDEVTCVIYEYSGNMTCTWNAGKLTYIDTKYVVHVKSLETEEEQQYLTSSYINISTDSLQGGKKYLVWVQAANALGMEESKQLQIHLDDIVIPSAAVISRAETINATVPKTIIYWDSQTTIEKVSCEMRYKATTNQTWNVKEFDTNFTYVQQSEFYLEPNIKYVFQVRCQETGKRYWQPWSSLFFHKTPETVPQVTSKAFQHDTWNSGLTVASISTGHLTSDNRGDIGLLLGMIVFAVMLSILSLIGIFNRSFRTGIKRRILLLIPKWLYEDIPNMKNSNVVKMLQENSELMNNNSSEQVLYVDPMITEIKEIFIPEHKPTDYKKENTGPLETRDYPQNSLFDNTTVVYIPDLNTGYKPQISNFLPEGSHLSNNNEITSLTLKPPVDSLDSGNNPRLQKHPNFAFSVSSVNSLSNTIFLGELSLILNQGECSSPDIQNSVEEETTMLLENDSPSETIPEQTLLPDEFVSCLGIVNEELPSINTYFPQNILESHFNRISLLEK

B1: Compound 44 (peptide)
peptide: KGWQE[AEF][2Nal][αMeL]E[Dab][3Pal]-NHMe
modifications: lactam 1-9, N-5
SMILES: CNC(=O)[C@H](Cc1cccnc1)NC(=O)[C@H](CCN)NC(=O)[C@@H]1CCC(=O)NCCCC[C@@H]2NC(=O)CC[C@H](NC(=O)[C@H](CCC(N)=O)NC(=O)[C@H](Cc3c[nH]c4ccccc34)NC(=O)CNC2=O)C(=O)N[C@@H](Cc2ccc(OCCN)cc2)C(=O)N[C@@H](Cc2ccc3ccccc3c2)C(=O)N[C@@](C)(CC(C)C)C(=O)N1
B2: Compound 3 (peptide)
peptide: [dK]TVWQD[AEF][2Nal][αMeL]E[Dab][3Pal]-NH2
modifications: lactam 1-10, N-6
SMILES: CC(C)C[C@]1(C)NC(=O)[C@H](Cc2ccc3ccccc3c2)NC(=O)[C@H](Cc2ccc(OCCN)cc2)NC(=O)[C@@H]2CC(=O)N[C@H](CCCCNC(=O)CC[C@@H](C(=O)N[C@@H](CCN)C(=O)N[C@@H](Cc3cccnc3)C(N)=O)NC1=O)C(=O)N[C@@H]([C@@H](C)O)C(=O)N[C@@H](C(C)C)C(=O)N[C@@H](Cc1c[nH]c3ccccc13)C(=O)N[C@@H](CCC(N)=O)C(=O)N2
B3: Compound 45 (peptide)
peptide: K[βAla]WQE[AEF][2Nal][αMeL]E[Dab][3Pal]-NHMe
modifications: lactam 1-9, N-5
SMILES: CNC(=O)[C@H](Cc1cccnc1)NC(=O)[C@H](CCN)NC(=O)[C@@H]1CCC(=O)NCCCC[C@@H]2NC(=O)CC[C@H](NC(=O)[C@H](CCC(N)=O)NC(=O)[C@H](Cc3c[nH]c4ccccc34)NC(=O)CCNC2=O)C(=O)N[C@@H](Cc2ccc(OCCN)cc2)C(=O)N[C@@H](Cc2ccc3ccccc3c2)C(=O)N[C@@](C)(CC(C)C)C(=O)N1
B4: Ref 122 (peptide)
peptide: [4‑Aminomethyl‑phenylacetyl]SEWQ[Dab][AEF][2Nal][αMeL]E[Dab][3Pal]-NH2
modifications: lactam N-10; bridge 3-6; also: (2c) bridge type not defined
B5: Compound 46 (peptide)
peptide: [K(G)]WQE[AEF][2Nal][αMeL]E[Dab][3Pal]-NHMe
modifications: lactam 1-8, N-4
SMILES: CNC(=O)[C@H](Cc1cccnc1)NC(=O)[C@H](CCN)NC(=O)[C@@H]1CCC(=O)NCC(=O)NCCCC[C@@H]2NC(=O)CC[C@H](NC(=O)[C@H](CCC(N)=O)NC(=O)[C@H](Cc3c[nH]c4ccccc34)NC2=O)C(=O)N[C@@H](Cc2ccc(OCCN)cc2)C(=O)N[C@@H](Cc2ccc3ccccc3c2)C(=O)N[C@@](C)(CC(C)C)C(=O)N1
B6: Ref 155 (peptide)
peptide: Ac-KTCWQC[AEF][2Nal][αMeL]E[Dab][3Pal]-NH2
modifications: lactam 1-10; linker 3-6 via 1,3‑dibromopropan‑2‑one″
B7: Compound 1 (peptide)
peptide: [dK]TVWQE[AEF][2Nal][αMeL]E[Dab][3Pal]-NH2
modifications: lactam 1-10; lactam (positions not given here); not fully specified (bridges); printed as [{d}K](1c)(6c)^{†}TVWQE(6c)[Y(2-aminoethoxy)][2-Nal][2-Me-Leu]E(1c)[Dab][3-(3-Pyridyl)-Ala]-[NH2]
B8: Ref 120 (peptide)
peptide: [4‑Aminomethyl‑phenylacetyl]SCWQC[AEF][2Nal][αMeL]E[Dab][3Pal]-NH2
modifications: lactam N-10; linker 3-6 via 1,3‑dibromopropan‑2‑one″
B9: Compound 65 (peptide)
peptide: KIVWQE[AEF][2Nal][αMeL][β3hE]-{NH(2-(3-pyridyl)ethyl)}
modifications: lactam 1-10, N-6
B10: Compound 17 (peptide)
peptide: KIVWQE[Phe(4-Me)][2Nal][Aib]E[Dab][3Pal]-NH2
modifications: lactam 1-10, N-6
SMILES: CC[C@H](C)[C@@H]1NC(=O)[C@@H]2CCCCNC(=O)CC[C@@H](C(=O)N[C@@H](CCN)C(=O)N[C@@H](Cc3cccnc3)C(N)=O)NC(=O)C(C)(C)NC(=O)[C@H](Cc3ccc4ccccc4c3)NC(=O)[C@H](Cc3ccc(C)cc3)NC(=O)[C@H](CCC(=O)N2)NC(=O)[C@H](CCC(N)=O)NC(=O)[C@H](Cc2c[nH]c3ccccc23)NC(=O)[C@H](C(C)C)NC1=O
B11: Compound 2 (peptide)
peptide: KTVWQE[AEF][2Nal][αMeL]E[Dab][3Pal]-NH2
modifications: lactam 1-10, N-6
SMILES: CC(C)C[C@]1(C)NC(=O)[C@H](Cc2ccc3ccccc3c2)NC(=O)[C@H](Cc2ccc(OCCN)cc2)NC(=O)[C@@H]2CCC(=O)N[C@@H](CCCCNC(=O)CC[C@@H](C(=O)N[C@@H](CCN)C(=O)N[C@@H](Cc3cccnc3)C(N)=O)NC1=O)C(=O)N[C@@H]([C@@H](C)O)C(=O)N[C@@H](C(C)C)C(=O)N[C@@H](Cc1c[nH]c3ccccc13)C(=O)N[C@@H](CCC(N)=O)C(=O)N2
B12: Compound 39 (peptide)
peptide: ETWQE[AEF][2Nal][αMeL]K[Dab][3Pal]-NHMe
modifications: lactam 1-9, N-5
SMILES: CNC(=O)[C@H](Cc1cccnc1)NC(=O)[C@H](CCN)NC(=O)[C@@H]1CCCCNC(=O)CC[C@@H]2NC(=O)CC[C@H](NC(=O)[C@H](CCC(N)=O)NC(=O)[C@H](Cc3c[nH]c4ccccc34)NC(=O)[C@H]([C@@H](C)O)NC2=O)C(=O)N[C@@H](Cc2ccc(OCCN)cc2)C(=O)N[C@@H](Cc2ccc3ccccc3c2)C(=O)N[C@@](C)(CC(C)C)C(=O)N1
B13: Compound 36 (peptide)
peptide: KTWQE[AEF][2Nal][αMeL]E[Dab][3Pal]-NHMe
modifications: lactam 1-9, N-5
SMILES: CNC(=O)[C@H](Cc1cccnc1)NC(=O)[C@H](CCN)NC(=O)[C@@H]1CCC(=O)NCCCC[C@@H]2NC(=O)CC[C@H](NC(=O)[C@H](CCC(N)=O)NC(=O)[C@H](Cc3c[nH]c4ccccc34)NC(=O)[C@H]([C@@H](C)O)NC2=O)C(=O)N[C@@H](Cc2ccc(OCCN)cc2)C(=O)N[C@@H](Cc2ccc3ccccc3c2)C(=O)N[C@@](C)(CC(C)C)C(=O)N1
B14: Ref 82 (peptide)
peptide: [4‑Aminomethyl‑phenylacetyl]SCWQC[AEF][2Nal][αMeL]E[Dab]-NH2
modifications: lactam N-10; linker 3-6 via 1,3‑dibromopropan‑2‑one″

Tests used:
[1] = target: T1, Nluc-IL23R fusion protein; experiment: BRET competition vs TAMRA-labelled peptide, Nluc-IL23R membranes
[2] = target: T2, human IL-23R endogenously expressed on …; experiment: cell-based or functional assay
[3] = target: T1, Nluc-IL23R fusion protein; experiment: BRET competition vs TAMRA-labelled peptide, Nluc-IL23R membranes; remark: listed apart in the source

Binder	% displacement [1]	hIL-23 (pSTAT3) antagonist % inhibition [2]	hIL-23 (pSTAT3) antagonist IC50 [2]	% displacement [3]	IC50 [1]
B1	100%	100%	15 nM	–	–
B2	105%	101%	1.5 nM	–	–
B3	100%	100%	58 pM	–	–
B4	97%	–	28 pM	–	–
B5	104%	102%	25 nM	–	–
B6	97%	100%	31 pM	–	–
B7	103%	102%	0.23 nM	–	–
B8	94%	101%	54 pM	–	–
B9	–	–	–	99%	–
B10	107%	99%	2.9 nM	–	0.092 nM
B11	100%	99%	0.11 nM	–	–
B12	98%	99%	2.4 nM	–	–
B13	100%	97%	1.1 nM	–	–
B14	103%	97%	11 nM	–	–
